T1: MTase(R124) (UniProt P10484)
T1 sequence 1: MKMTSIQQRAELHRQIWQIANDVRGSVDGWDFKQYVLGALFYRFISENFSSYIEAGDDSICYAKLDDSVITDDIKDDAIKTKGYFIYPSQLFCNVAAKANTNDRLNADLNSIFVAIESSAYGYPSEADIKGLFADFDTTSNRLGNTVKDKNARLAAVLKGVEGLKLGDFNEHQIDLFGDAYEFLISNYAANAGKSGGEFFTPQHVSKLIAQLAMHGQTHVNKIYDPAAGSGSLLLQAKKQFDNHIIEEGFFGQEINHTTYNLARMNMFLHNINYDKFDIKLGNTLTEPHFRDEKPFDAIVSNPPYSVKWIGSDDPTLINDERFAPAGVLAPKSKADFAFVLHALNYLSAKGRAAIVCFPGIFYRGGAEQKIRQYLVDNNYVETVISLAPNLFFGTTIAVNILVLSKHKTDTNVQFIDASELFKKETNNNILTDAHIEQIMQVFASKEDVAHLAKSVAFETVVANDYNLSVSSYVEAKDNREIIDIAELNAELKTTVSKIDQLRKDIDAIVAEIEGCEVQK
T1 sequence 2: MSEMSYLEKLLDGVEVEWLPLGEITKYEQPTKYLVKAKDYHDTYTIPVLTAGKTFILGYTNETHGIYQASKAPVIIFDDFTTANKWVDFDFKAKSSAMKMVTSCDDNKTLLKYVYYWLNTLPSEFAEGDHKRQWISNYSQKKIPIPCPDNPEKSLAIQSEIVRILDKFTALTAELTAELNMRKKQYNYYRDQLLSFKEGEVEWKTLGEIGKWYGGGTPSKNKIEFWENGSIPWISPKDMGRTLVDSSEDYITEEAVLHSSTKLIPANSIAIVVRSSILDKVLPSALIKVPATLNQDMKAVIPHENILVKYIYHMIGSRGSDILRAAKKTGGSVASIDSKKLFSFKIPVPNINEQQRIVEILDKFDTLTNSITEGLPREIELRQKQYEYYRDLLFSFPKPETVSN

T2: MTase(R124), P10484
T2 chain 1: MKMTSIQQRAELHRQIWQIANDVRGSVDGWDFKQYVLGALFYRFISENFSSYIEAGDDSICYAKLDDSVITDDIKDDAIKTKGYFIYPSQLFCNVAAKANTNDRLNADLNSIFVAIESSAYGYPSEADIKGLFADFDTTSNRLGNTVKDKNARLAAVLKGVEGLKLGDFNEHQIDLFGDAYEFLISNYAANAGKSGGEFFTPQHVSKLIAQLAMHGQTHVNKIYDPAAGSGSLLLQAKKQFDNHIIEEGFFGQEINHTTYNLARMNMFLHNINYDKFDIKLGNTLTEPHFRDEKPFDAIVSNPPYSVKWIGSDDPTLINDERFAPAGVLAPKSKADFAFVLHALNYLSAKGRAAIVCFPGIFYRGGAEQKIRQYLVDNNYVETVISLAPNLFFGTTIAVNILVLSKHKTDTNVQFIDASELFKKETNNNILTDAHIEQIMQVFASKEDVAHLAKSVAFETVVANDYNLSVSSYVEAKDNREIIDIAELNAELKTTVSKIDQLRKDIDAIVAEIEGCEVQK
T2 chain 2: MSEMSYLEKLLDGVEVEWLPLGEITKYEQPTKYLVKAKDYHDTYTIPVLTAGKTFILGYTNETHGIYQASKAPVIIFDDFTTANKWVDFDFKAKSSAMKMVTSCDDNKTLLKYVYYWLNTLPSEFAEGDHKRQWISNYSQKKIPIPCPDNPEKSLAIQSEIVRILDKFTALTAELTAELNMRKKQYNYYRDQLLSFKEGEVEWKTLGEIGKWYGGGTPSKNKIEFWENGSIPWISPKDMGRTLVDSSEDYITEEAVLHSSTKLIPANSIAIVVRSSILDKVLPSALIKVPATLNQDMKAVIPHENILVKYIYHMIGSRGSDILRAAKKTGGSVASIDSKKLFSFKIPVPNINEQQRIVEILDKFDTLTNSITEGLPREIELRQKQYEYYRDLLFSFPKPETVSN


Key:
MTase(R124) = target: T1, MTase(R124)
MTase(R124), P10484 = target: T2, MTase(R124), P10484

| Molecule | DNA cleavage by the hybrid endonuclease (MTase(R124)) | cleavage of pCFD30 plasmid DNA (agarose gel) (MTase(R124), P10484) |
| --- | --- | --- |
| HsdR(prrI) | this hybrid enzyme can only cleave DNA in the presence of extremely high concentrations of HsdR(prrI) |  |
| HsdR(R124) (protein) MTHQTHTIAESNNFIVLDKYIKAEPTGDSYQSESDLERELIQDLRNQGYEFISVKSQSAMLANVREQLQNLNGVVFNDSEWRRFTEQYLDNPSDGILDKTRKIHIDYICDFIFDDERLENIYLIDKKNLMRNKVQIIQQFEQAGSHANRYDVTILVNGLPLVQIELKKRGVAIREAFNQIHRYSKESFNSENSLFKYLQLFVISNGTDTRYFANTTKRDKNSFDFTMNWAKSDNTLIKDLKDFTATCFQKHTLLNVLVNYSVFDSSQTLLVMRPYQIAATERILWKIKSSFTAKNWSKPESGGYIWHTTGSGKTLTSFKAARLATELDFIDKVFFVVDRKDLDYQTMKEYQRFSPDSVNGSENTAGLKRNLDKDDNKIIVTTIQKLNNLMKAESDLPVYNQQVVFIFDECHRSQFGEAQKNLKKKFKRYYQFGFTGTPIFPENALGSETTASVFGRELHSYVITDAIRDEKVLKFKVDYNDVRPQFKSLETETDEKKLSAAENQQAFLHPMRIQEITQYILNNFRQKTHRTFPGSKGFNAMLAVSSVDAAKAYYATFKRLQEEAANKSATYKPLRIATIFSFAANEEQNAIGEISDETFDTSAMDSSAKEFLDAAIREYNSHFKTNFSTDSNGFQNYYRDLAQRVKNQDIDLLIVVGMFLTGFDAPTLNTLFVDKNLRYHGLMQAFSRTNRIYDATKTFGNIVTFRDLERSTIDAITLFGDKNTKNVVLEKSYTEYMEGFTDAATGEAKRGFMTVVSELEQRFPDPTSIESEKEKKDFVKLFGEYLRAENILQNYDEFATLKALQQIDLSDPVAVEKFKAEHYVDDEKFAELQTIRLPADRKIQDYRSAYNDIRDWQRREKEAEKKEKSTTDWDDVVFEVDLLKSQEINLDYILGLIFEHNRQNKGKGEMIEEVKRLIRSSLGNRAKEGLVVDFIQQTNLDDLPDKASIIDAFFTFAQREQQREAEALIKEENLNEDAAKRYIRTSLKREYATENGTELNETLPKLSPLNPQYKTKKQAVFQKIVSFIEKFKGVGGKI |  | The R2-complex was found to cleave the plasmid DNA, as expected. No cleavage was observed for the R1-complex |

Reference: patent publication US20060160117
